This is an account of results in PMC9234588.

The target of assay [1] is Fluorescently labelled MukB (MukB-Cy5) (E. coli) (UniProt P22523). In words: single-molecule TIRF fluorescence intensity counting; MukB-Cy5 on 'bulbs' of doubly tethered λDNA; 10 nM MukB incubated with DNA at 50 mM NaCl until compacted, then 10 nM MukF, 20 nM MukE and 1 mM ATP-Mg2+ flowed in; number from the intensity against that of a single MukB bound to glass; 107 DNAs.

The target in assay [2] is MukB^EQ-Cy5 (EQ MukB mutant, binds but cannot hydrolyse ATP) (E. coli) (UniProt P22523). The assay is described as follows: single-molecule TIRF fluorescence intensity counting; MukB^EQ-Cy5 with MukE, truncated monomeric MukF (MonoMukF) and ATP-Mg2+ on doubly tethered λDNA, 150 mM NaCl buffer, ~1 pN of applied force; 164 clusters.

As a reminder, the stoichiometry N is the number of molecules, sites or subunits per partner or assembly. In assay [1], “Fluorescently labelled MukB (MukB-Cy5) (from UniProt P22523 1-1486) (natural protein)” came in with a stoichiometry N of 2 to 4. Turning to “MukB^EQ-Cy5 (EQ MukB mutant, binds but cannot hydrolyse ATP) (from UniProt P22523 1-1486) (natural protein)”, in assay [2], the stoichiometry N turned out to be 2.
